From PMC10039067, “Temporal and spatial assembly of inner ear hair cell ankle link condensate through phase separation” (Nature Communications, 2023)
Residue numbers refer to the chain shown, from its start. “And” between values parts separate entries of the source, which are not always exact repeats. Equal entries are not always repeated. Where two headings read alike, the source gives them in different places.

T1: PDZD7 PDZ12 M285R (UniProt E9Q9W7 84-289, M285R)
T1 sequence: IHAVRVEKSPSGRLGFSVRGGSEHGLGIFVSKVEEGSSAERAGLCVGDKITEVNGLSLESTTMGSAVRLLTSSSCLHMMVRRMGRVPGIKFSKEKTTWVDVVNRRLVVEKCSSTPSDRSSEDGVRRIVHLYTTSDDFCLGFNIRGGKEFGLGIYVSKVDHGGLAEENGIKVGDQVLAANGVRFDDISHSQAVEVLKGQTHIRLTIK

T2: PDZD7 PDZ12 G228R (UniProt E9Q9W7 84-289, G228R)
T2 sequence: T1 sequence with G145R, R202M

T3: WHRN NPDZ12 R223H (UniProt Q9P202 33-377, R223H)
T3 construct: WHRN, residues 33-377 of UniProtKB Q9P202 with the deafness-related mutation R223H; source: E. coli BL21 (DE3), purified (Ni2+-NTA, size-exclusion chromatography)
T3 sequence (looked up): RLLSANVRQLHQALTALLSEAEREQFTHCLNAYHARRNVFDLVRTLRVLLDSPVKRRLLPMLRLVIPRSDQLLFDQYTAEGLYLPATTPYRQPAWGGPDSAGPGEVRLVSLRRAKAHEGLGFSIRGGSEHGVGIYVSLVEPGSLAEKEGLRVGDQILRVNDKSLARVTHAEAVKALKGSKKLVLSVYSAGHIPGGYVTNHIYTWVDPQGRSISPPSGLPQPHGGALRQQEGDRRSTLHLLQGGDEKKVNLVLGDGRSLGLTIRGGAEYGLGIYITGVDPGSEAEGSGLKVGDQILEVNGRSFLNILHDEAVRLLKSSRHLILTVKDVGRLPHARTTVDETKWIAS

T4: WHRN NPDZ12 A64D (UniProt Q9P202 33-377, A64D)
T4 construct: WHRN, residues 33-377 of UniProtKB Q9P202 with the deafness-related mutation A64D; Mutant made by PCR-based mutagenesis; the ClinVar ids are tied to the mutations by their printed order; source: E. coli BL21 (DE3), purified (Ni2+-NTA, size-exclusion chromatography)
T4 sequence (looked up): T3 sequence (looked up) with A32D, H191R

T5: WHRN NPDZ12 T110A (UniProt Q9P202 33-377, T110A)
T5 construct: WHRN, residues 33-377 of UniProtKB Q9P202 with the deafness-related mutation T110A; source: E. coli BL21 (DE3), purified (Ni2+-NTA, size-exclusion chromatography)
T5 sequence (looked up): T3 sequence (looked up) with T78A, H191R

T6: WHRN NTD (UniProt Q9P202 33-117)
T6 chain: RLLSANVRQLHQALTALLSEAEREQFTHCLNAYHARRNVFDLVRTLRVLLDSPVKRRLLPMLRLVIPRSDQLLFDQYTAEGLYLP

T7: WHRN NPDZ1 (UniProt Q9P202 33-239)
T7 chain: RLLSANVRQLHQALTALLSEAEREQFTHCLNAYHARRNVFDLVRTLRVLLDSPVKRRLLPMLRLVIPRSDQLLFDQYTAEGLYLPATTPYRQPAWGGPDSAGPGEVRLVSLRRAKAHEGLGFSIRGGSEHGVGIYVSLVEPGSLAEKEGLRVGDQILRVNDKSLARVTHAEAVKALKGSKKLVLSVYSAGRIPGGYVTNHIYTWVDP

B1: WHRN NPDZ12 (domain or fragment, UniProt Q9P202 33-377, looked up)
chain: T3 sequence (looked up) with H191R
notes: WHRN, residues 33-377 (NTD, PDZ1 and PDZ2) of UniProtKB Q9P202; Cloned into pET.32M.3C; Named Trx-WHRN NPDZ12 in SEC-MALS; also called Trx-WHRN NPDZ12; Whirlin; source: E. coli BL21 (DE3), purified (Ni2+-NTA, size-exclusion chromatography); not shown: Trx, N-terminal, kept
B2: WHRN NTD (domain or fragment, UniProt Q9P202 33-117, looked up)
chain: T6 chain
notes: WHRN N-terminal domain, residues 33-117 of UniProtKB Q9P202; also called N-terminal domain; HHD1; source: E. coli BL21 (DE3), purified (Ni2+-NTA, size-exclusion chromatography)
B3: ADGRV1-CT (domain or fragment, UniProt Q8VHN7 6239-6298, looked up)
chain: GSLIADEESQEFDDLIFALKTGAGLSVSDNESGQGSQEGGTLTDSQIVELRRIPIADTHL
notes: ADGRV1 cytoplasmic region, residues 6239-6298 of UniProtKB Q8VHN7; Named Trx-ADGRV1-CT in SEC-MALS; also called Trx-ADGRV1-CT; VLGR1-CT; source: E. coli BL21 (DE3), purified (Ni2+-NTA, size-exclusion chromatography); not shown: Trx, N-terminal, kept
B4: USH2A-CT (domain or fragment)
chain: PSQSQLSHAYSQSSLHRSVSQLMDMADKKVVTEDSLWETIMGHSSGLYVDEEELMNAIKGFSSVTKEHTAFTDTHL

Columns and labels:
[1] = target: B1; assay: ITC; MicroCal iTC200, 25 °C; 50 mM tris pH 7.5-8.0, 300 mM NaCl, 1 mM DTT, 1 mM EDTA; cell 20–50 µM, syringe 400–800 µM; one-site binding model
[2] = target: T1, PDZD7 PDZ12 M285R; assay: ITC
[3] = target: T2, PDZD7 PDZ12 G228R; assay: ITC
[4] = target: PDZD7 PDZ1 (UniProt E9Q9W7); assay: ITC; MicroCal iTC200, 25 °C; 50 mM tris pH 7.5-8.0, 300 mM NaCl, 1 mM DTT, 1 mM EDTA; cell 20–50 µM, syringe 400–800 µM; one-site binding model
[5] = target: PDZD7 PDZ12 (UniProt E9Q9W7); assay: as above
[6] = target: T3, WHRN NPDZ12 R223H; assay: as above
[7] = target: T4, WHRN NPDZ12 A64D; assay: as above
[8] = target: T5, WHRN NPDZ12 T110A; assay: as above
[9] = target: B1; assay: SEC-MALS; mixtures, each component around 30 µM; Superose 12 10/300 GL or Superdex 200 increase 10/300 GL; 50 mM tris, 300 mM NaCl, 1 mM DTT, 1 mM EDTA
[10] = target: the molecule itself; assay: SEC-MALS; single proteins at 50 μM; Superose 12 10/300 GL or Superdex 200 increase 10/300 GL; 50 mM tris, 300 mM NaCl, 1 mM DTT, 1 mM EDTA
[11] = target: T6, WHRN NTD; assay: ITC
[12] = target: T7, WHRN NPDZ1; assay: ITC
[13] = target: USH2A-CT (UniProt Q2QI47); assay: SEC-MALS; single proteins at 50 μM; Superose 12 10/300 GL or Superdex 200 increase 10/300 GL; 50 mM tris, 300 mM NaCl, 1 mM DTT, 1 mM EDTA
[14] = target: T7, WHRN NPDZ1; assay: ITC; MicroCal iTC200, 25 °C; 50 mM tris pH 7.5-8.0, 300 mM NaCl, 1 mM DTT, 1 mM EDTA; cell 20–50 µM, syringe 400–800 µM; one-site binding model
[15] = target: WHRN PDZ1 (UniProt Q9P202); assay: as above

Chain of PDZD7 PDZ1 (E9Q9W7 81-167): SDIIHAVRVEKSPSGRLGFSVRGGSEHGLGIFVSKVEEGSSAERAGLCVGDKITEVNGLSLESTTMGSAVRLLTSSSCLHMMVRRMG

## ADGRV1-CT △PBM (from UniProt Q8VHN7 6239-6298) (domain or fragment)
[1]
  Kd: 9.5 µM

## GHSSGLYVDEEELMNAIKGFSSVTKEHTAFTDTHL (domain or fragment) [USH2A-CT (Short, S)]
[2]
  Kd: 8.5 µM
[3]
  Kd: 56 µM
[4]
  Kd: 66 µM
[5]
  Kd: 15 µM
[1]
  Kd: 2.7 µM
[6]
  Kd: 4.7 µM
[7]
  Kd: 5.5 µM
[8]
  Kd: 16 µM
[9]
  stoichiometry N (copies per WHRN dimer): 2
[9]; scale: copy per WHRN dimer
  stoichiometry N: 1

## B1
[10]
  stoichiometry N: 2

## B2
[10]
  binding result: binds

## B3
[11]
  Kd: 31 µM
[12]
  Kd: 9 µM
[1]; both partners purified
  Kd: ~1.4 µM
[6]; both partners purified
  Kd: 3.3 µM
[7]; both partners purified
  Kd: 0.41 µM
[8]; both partners purified
  Kd: 0.55 µM
[9]; both partners purified
  stoichiometry N: 2 copies per WHRN dimer and 1 copy per WHRN dimer (three proteins mixed)

## B4
[11]
  Kd: 19 µM
[13]
  stoichiometry N: 2
[14]
  Kd: 5.1 µM
[15]
  Kd: 1.2 µM
[1]
  Kd: 0.68 µM
